According to paper PMC3308961, “Chemical Mechanism of UDP-Galactopyranose Mutase from Trypanosoma cruzi: A Potential Drug Target against Chagas' Disease” (PLoS ONE, 2012):

What was measured:
TcUGM = biological target: T1, TcUGM (Trypanosoma cruzi, UniProt Q4E1W2); experiment: UV-visible spectrum of purified enzyme; HPLC of released flavin; format: binding; settings: noncovalently bound, co-purified
T1 construct: gene Tc00.1047053507993.160

[1] = test system: O=c1ccn([C@@H]2O[C@H](COP(=O)(O)OP(=O)(O)O[C@H]3O[C@@H]([C@H](O)CO)[C@H](O)[C@H]3O)[C@@H](O)[C@H]2O)c(=O)[nH]1; experiment: purified protein; settings: reduced with 20 mM dithionite, 25 mM Hepes, 125 mM NaCl pH 7.5, 37°C
[2] = test system: NC(=O)C1=CN([C@@H]2O[C@H](COP(=O)(O)OP(=O)(O)OC[C@H]3O[C@@H](n4cnc5c(N)ncnc54)[C@H](OP(=O)(O)O)[C@@H]3O)[C@@H](O)[C@H]2O)C=CC1; experiment: purified protein; settings: oxidase activity (kox), air-saturated 50 mM phosphate pH 7.0, room temperature, no UDP-Galp
[3] = test system: NC(=O)C1=CN([C@@H]2O[C@H](COP(=O)(O)OP(=O)(O)OC[C@H]3O[C@@H](n4cnc5c(N)ncnc54)[C@H](O)[C@@H]3O)[C@@H](O)[C@H]2O)C=CC1; experiment: purified protein; settings: oxidase activity (kox), air-saturated 50 mM phosphate pH 7.0, room temperature, no UDP-Galp

T1 sequence (Q4E1W2 entry or part of it): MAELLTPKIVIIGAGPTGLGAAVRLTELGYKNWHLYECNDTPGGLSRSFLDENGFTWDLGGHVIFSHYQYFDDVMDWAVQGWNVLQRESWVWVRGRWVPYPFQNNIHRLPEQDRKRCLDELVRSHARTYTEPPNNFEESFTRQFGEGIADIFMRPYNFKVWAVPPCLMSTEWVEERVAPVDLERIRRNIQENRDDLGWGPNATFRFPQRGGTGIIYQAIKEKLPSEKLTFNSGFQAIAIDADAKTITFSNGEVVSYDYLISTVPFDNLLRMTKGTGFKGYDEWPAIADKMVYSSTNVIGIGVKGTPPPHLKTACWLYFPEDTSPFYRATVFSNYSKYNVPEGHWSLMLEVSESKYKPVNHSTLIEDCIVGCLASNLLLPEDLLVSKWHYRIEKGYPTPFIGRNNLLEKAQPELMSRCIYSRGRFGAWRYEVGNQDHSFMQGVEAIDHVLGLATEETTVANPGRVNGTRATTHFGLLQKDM

Compound	UV-visible spectrum of purified enzyme; HPLC of released flavin (TcUGM)	Km [1]	kcat [1]	kcat/Km [1]	Km [2]	kcat [2]	Km [3]	kcat [3]
Cc1cc2nc3c(=O)[nH]c(=O)nc-3n(C[C@H](O)[C@H](O)[C@H](O)COP(=O)(O)OP(=O)(O)OC[C@H]3O[C@@H](n4cnc5c(N)ncnc54)[C@H](O)[C@@H]3O)c2cc1C [FAD]	Recombinant TcUGM contained noncovalently bound flavin cofactor							
TcUGM (Trypanosoma cruzi strain CL Brener)		140 ± 10 µM	13.4 ± 0.3 s⁻¹	93000 ± 6000 M⁻¹ s⁻¹	15 ± 2 µM	0.030 ± 0.002 s⁻¹	90 ± 20 µM	0.015 ± 0.002 s⁻¹
